One molecule from PMC5332220 (Biochemistry, 2016) can be followed below.

The target in experiment [1] is T1, SspB_milli (UniProt P45206 1-150, A58V). Briefly: fluorescence polarisation.
For experiment [2], the target named is T1, SspB_milli. Briefly: fluorescence polarisation. The source holds these as a separate data set.

B1: improved Light Inducible Dimer (iLID) (designed binder)
chain: MRGSHHHHHHGSLATTLERIEKNFVITDPRLPDNPIIFASDSFLQLTEYSREEILGRNCRFLQGPETDRATVRKIRDAIDNQTEVTVQLINYTKSGKKFWNVFHLQPMRDYKGDVQYFIGVQLDGTERLHGAAEREAVCLIKKTAFQIAEAANDENYF
modifications: flavin mononucleotide (FMN) cofactor; in the lit state a metastable covalent bond of FMN with Cys450
As usually defined, the Kd is a measure of binding affinity in units of concentration. A high value points to lower affinity. On to B1, for which the “fold weaker than the lit state” value with SspB_milli [1] is at least 25 fold. Also, in the experiment with SspB_milli [2], the Kd stood at 56 ± 6 µM.
